B2: fchd540 protein fused to a flag peptide (transfected 293 cells or BAECs) (other, human, UniProt O15105 1-426, looked up)
chain: MFRTKRSALVRRLWRSRAPGGEDEEEGAGGGGGGGELRGEGATDSRAHGAGGGGPGRAGCCLGKAVRGAKGHHHPHPPAAGAGAAGGAEADLKALTHSVLKKLKERQLELLLQAVESRGGTRTACLLLPGRLDCRLGPGAPAGAQPAQPPSSYSLPLLLCKVFRWPDLRHSSEVKRLCCCESYGKINPELVCCNPHHLSRLCELESPPPPYSRYPMDFLKPTADCPDAVPSSAETGGTNYLAPGGLSDSQLLLEPGDRSHWCVVAYWEEKTRVGRLYCVQEPSLDIFYDLPQGNGFCLGQLNSDNKSQLVQKVRSKIGCGIQLTREVDGVWVYNRSSYPIFIKSATLDNPDSRTLLVHKVFPGFSIKAFDYEKAYSLQRPNDHEFMQQPWTGFTVQISFVKGWGQCYTRQFISSCPCWLEVIFNSR
notes: Co-immunoprecipitation construct; not shown: flag peptide (different from that on rchd534)
B6: GAL4 DNA-binding domain fusion to rchd534 (other, UniProt P04386 1-147, looked up)
chain: MKLLSSIEQACDICRLKKLKCSKEKPKCAKCLKNNWECRYSPKTKRSPLTRAHLTEVESRLERLEQLFLLIFPREDLDMILKMDSLQDIKALLTGLFVQDNVNKDAVTDRLASVETDMPLTLRQHRISATSSSEESSNKGQRQLTVSMSRMGKPIETQKSPPPPYSRLSPRDEYKPLDLSDSTLSYTETEATNSLITAPGEFSDASMSPDATKPSHWCSVAYWEHRTRVGRLYAVYDQAVSIFYDLPQGSGFCLGQLNLEQRSESVRRTRSKIGFGILLSKEPDGVWAYNRGEHPIFVNSPTLDAPGGRALVVRKVPPGYSIKVFDFERSGLQHAPEPDAADGPYDPNSVRISFAKGWGPCYSRQFITSCPCWLEILLNNPR
notes: Yeast two-hybrid bait; also called rchd534 bait protein

Experiments:
[1] = target: T1, GAL4 DNA-binding domain fusion to DPC4 (UniProt P04386 1-147; Q13485 1-552, limits assumed); assay: yeast two-hybrid mating assay (HIS3 and lacZ reporters)
T1 construct: Yeast two-hybrid bait; also called DPC4 bait protein
From the text: (§1) Yeast expression plasmids encoding the GAL4 DNA-binding domain either alone or fused in frame to fchd540, rchd534, Drosophilia MAD, DPC4, or p53 were transformed into MATa two-hybrid screening strain HF7c. Yeast expression plasmnids encoding the GAL4 transcriptional activation domain alone and GAL4 activation domain fusions to rchd534 and SV40 were transformed into MATα two-hybrid screening strain Y1 87. p53 and SV40 interact with each other and should not interact with the experimental proteins. The HF7c transformants were propagated as stripes on semisolid synthetic complete medium lacking L-tryptophan and the Y187 transformants were grown as stripes on semisolid synthetic complete medium lacking L-leucine. Both sets of stripes were replica plated in the form of a grid onto a single rich YPAD plate and the haploid strains of opposite mating types were allowed to mate overnight at 30° C. The yeast strains on the mating plate were then replica plated to a synthetic complete plate lacking L-leucine and L-tryptophan to select for diploids and incubated at 30° C. overnight. Diploid strains on the synthetic complete plate lacking L-leucine and L-tryptophan were replica plated to a synthetic complete plate lacking L-leucine, L-tryptophan, and L-histidine to assay HIS3 expression and a paper filter on a synthetic complete plate lacking L-leucine and L-tryptophan. The next day the paper filter was subjected to the paper filter beta-galactosidase assay to measure expression of the lacZ reporter gene. HIS3 expression was scored after 3 days of growth at 30° C.
(§2) It was confirmed that these rchd534 cDNAs encode proteins that physically interact specifically with fchd540. Yeast expression plasmids encoding the GAL4 DNA-binding domain either alone or fused in frame to fchd540, rchd534, Drosophila MAD, DPC4, and p53 were transformed into MATa two-hybrid screening strain HF7c. Yeast expression plasmids encoding the GAL4 transcriptional activation domain (GAL4 AD) alone and GAL4 activation domain fusions to tchv03a, tchvR4A and SV40 were transformed into MATα two-hybrid screening strain Y1 87. p53 and SV40 interact with each other and should not interact with the experimental proteins. The HF7c transformants were propagated as stripes on semi-solid synthetic complete medium lacking […].

[2] = target: B6; assay: as above
From the text: as §1, §2

[3] = target: T2, GAL4 DNA-binding domain fusion to Drosophila MAD (Drosophila, UniProt P04386 1-147; P42003 1-455, limits assumed); assay: as above
T2 construct: Yeast two-hybrid bait; also called Dros; MAD; MAD bait protein
From the text: as §1, §2

[4] = target: the molecule itself; assay: co-immunoprecipitation from transfected 293 cells or BAECs
Experimental: (§3) The interaction of the rchd534 and fchd540 proteins, observed in yeast cells as described above, was tested in mammalian endothelial cell tissue culture. Either bovine aortic endothelial cells (BAECs) or 293 cells (human embryonic kidney cells, ATCC Accession No. CRL-1573) were transfected with constructs encoding both the rchd534 and fchd540 proteins, each fused to a different flag peptide allowing for specific immunoprecipitation. […] The co-immunoprecipitation of rchd534 and fchd540 further supports that these proteins interact in human cells that are physiologically relevant to cardiovascular disease.

[5] = target: T3, GAL4 DNA-binding domain-fchd540 fusion (human, UniProt P04386 1-147; O15105 1-426); assay: yeast two-hybrid mating assay (HIS3 and lacZ reporters)
T3 construct: Yeast two-hybrid bait; also called fchd540 bait protein; pGBT9-fchd540
From the text: as §1, §2

[6] = target: T4, GAL4 DNA-binding domain alone (UniProt P04386 1-147); assay: as above
T4 construct: Two-hybrid control
From the text: as §1, §2

[7] = target: B2; assay: co-immunoprecipitation, BAECs against 293 cells, equal amounts of protein
Experimental: as §3
The ability of the rchd534 and fchd540 proteins to interact with themselves and with other protein members of the TGF-β signalling pathway (MADR1, MADR2, DPC4, TbR1, TSR1, ActR1b, ALK3, ALK6), was tested using this co-inmunoprecipitation method. Each gene was transfected alone and in various combinations with other TGF-β pathway genes in either 293 cells or BAECs. The rchd534 protein formed homodimers in 293 cells and BAECs. […] As mentioned above, the rchd534 and fchd540 proteins formed heterodimers in 293 cells and BAECs. This interaction is about 50 fold stronger in BAECs than 293 cells based on equal amounts of protein.

[8] = target: T5, GAL4 activation domain fusion to SV40 (SV40, UniProt P03070 84-708); assay: yeast two-hybrid mating assay (HIS3 and lacZ reporters)
T5 construct: Two-hybrid control
From the text: as §1, §2

B1: tchvR4A (GAL4 activation domain fusion to amino acids 25-235 of rchd534) (other, not shown: large carriers)
chain: DEYKPLDLSDSTLSYTETEATNSLITAPGEFSDASMSPDATKPSHWCSVAYWEHRTRVGRLYAVYDQAVSIFYDLPQGSGFCLGQLNLEQRSESVRRTRSKIGFGILLSKEPDGVWAYNRGEHPIFVNSPTLDAPGGRALVVRKVPPGYSIKVFDFERSGLQHAPEPDAADGPYDPNSVRISFAKGWGPCYSRQFITSCPCWLEILLNNPR
notes: Library clone from the human breast two-hybrid library; also called tchvR4A fish protein
binding result [1]: no binding
binding result [2]: no binding
binding result [3]: no binding

B2
binding result [4]: no binding

B3: tchv03A (GAL4 activation domain fusion to amino acids 17-235 of rchd534) (other, not shown: large carriers)
chain: PYSRLSPRDEYKPLDLSDSTLSYTETEATNSLITAPGEFSDASMSPDATKPSHWCSVAYWEHRTRVGRLYAVYDQAVSIFYDLPQGSGFCLGQLNLEQRSESVRRTRSKIGFGILLSKEPDGVWAYNRGEHPIFVNSPTLDAPGGRALVVRKVPPGYSIKVFDFERSGLQHAPEPDAADGPYDPNSVRISFAKGWGPCYSRQFITSCPCWLEILLNNPR
notes: Library clone from the human breast two-hybrid library; also called tchv03A fish protein
binding result [1]: no binding
binding result [2]: no binding
binding result [3]: no binding

B4: GAL4 transcriptional activation domain alone (other, UniProt P04386 768-881, looked up)
chain: ANFNQSGNIADSSLSFTFTNSSNGPNLITTQTNSQALSQPIASSNVHDNFMNNEITASKIDDGNNSKPLSPGWTDQTAYNAFGITTGMFNTTTMDDVYNYLFDDEDTPPNPKKE
notes: Two-hybrid control; also called GAL4 AD alone; GAL4 AD
binding result [1]: no binding
binding result [2]: no binding
binding result [5]: no binding
binding result [6]: no binding
binding result [3]: no binding

B5: rchd534 protein fused to a flag peptide (transfected 293 cells or BAECs) (other, human, UniProt O43541-2 1-235, looked up)
chain: MSRMGKPIETQKSPPPPYSRLSPRDEYKPLDLSDSTLSYTETEATNSLITAPGEFSDASMSPDATKPSHWCSVAYWEHRTRVGRLYAVYDQAVSIFYDLPQGSGFCLGQLNLEQRSESVRRTRSKIGFGILLSKEPDGVWAYNRGEHPIFVNSPTLDAPGGRALVVRKVPPGYSIKVFDFERSGLQHAPEPDAADGPYDPNSVRISFAKGWGPCYSRQFITSCPCWLEILLNNPR
notes: Co-immunoprecipitation construct; also called Smad6; not shown: flag peptide for immunoprecipitation
fold stronger interaction in BAECs than in 293 cells [7]: ~50 fold

B6
binding result [8]: no binding
